Results: patent US5773001 (American Cyanamid Company, dated 1998)
Where two headings read alike, the source gives them in different places. Values belong to the molecule of their own block, whether it stands above or below them.

How the values were obtained:
[1] = biological target: polyepithelial mucin (PEM) antigen on cells (human) (UniProt P15941)
CD33 antigen (human) [2] = biological target: CD33 antigen (human) (UniProt P20138); assay: competition with 125I-labelled native antibody on HEL 92.1.7 cells; IC50 (reference) / IC50 (sample)
CD33 antigen (human) [3] = biological target: CD33 antigen (human) (UniProt P20138)
CD33 antigen (human) [4] = biological target: CD33 antigen (human) (UniProt P20138); remark: listed apart in the source
CD33 antigen (human) [5] = biological target: CD33 antigen (human) (UniProt P20138); remark: listed apart in the source
CD33 antigen (human) [6] = biological target: CD33 antigen (human) (UniProt P20138); remark: listed apart in the source
CD33 antigen (human) [7] = biological target: CD33 antigen (human) (UniProt P20138); remark: listed apart in the source
CD33 antigen (human) [8] = biological target: CD33 antigen (human) (UniProt P20138); remark: listed apart in the source
CD33 antigen (human) [9] = biological target: CD33 antigen (human) (UniProt P20138); remark: listed apart in the source
[10] = biological target: IL-2 receptor that is found on activated and functionally mature T cells, including abnormally activated leukemia cells (Homo sapiens (Human)) (UniProt P01589)
[11] = biological target: polyepithelial mucin (PEM) antigen on cells (human) (UniProt P15941); assay: competition with 125I-labelled native antibody on A2780DDP cells; IC50 (reference) / IC50 (sample)
Target sequence in this assay (P15941 24-1255): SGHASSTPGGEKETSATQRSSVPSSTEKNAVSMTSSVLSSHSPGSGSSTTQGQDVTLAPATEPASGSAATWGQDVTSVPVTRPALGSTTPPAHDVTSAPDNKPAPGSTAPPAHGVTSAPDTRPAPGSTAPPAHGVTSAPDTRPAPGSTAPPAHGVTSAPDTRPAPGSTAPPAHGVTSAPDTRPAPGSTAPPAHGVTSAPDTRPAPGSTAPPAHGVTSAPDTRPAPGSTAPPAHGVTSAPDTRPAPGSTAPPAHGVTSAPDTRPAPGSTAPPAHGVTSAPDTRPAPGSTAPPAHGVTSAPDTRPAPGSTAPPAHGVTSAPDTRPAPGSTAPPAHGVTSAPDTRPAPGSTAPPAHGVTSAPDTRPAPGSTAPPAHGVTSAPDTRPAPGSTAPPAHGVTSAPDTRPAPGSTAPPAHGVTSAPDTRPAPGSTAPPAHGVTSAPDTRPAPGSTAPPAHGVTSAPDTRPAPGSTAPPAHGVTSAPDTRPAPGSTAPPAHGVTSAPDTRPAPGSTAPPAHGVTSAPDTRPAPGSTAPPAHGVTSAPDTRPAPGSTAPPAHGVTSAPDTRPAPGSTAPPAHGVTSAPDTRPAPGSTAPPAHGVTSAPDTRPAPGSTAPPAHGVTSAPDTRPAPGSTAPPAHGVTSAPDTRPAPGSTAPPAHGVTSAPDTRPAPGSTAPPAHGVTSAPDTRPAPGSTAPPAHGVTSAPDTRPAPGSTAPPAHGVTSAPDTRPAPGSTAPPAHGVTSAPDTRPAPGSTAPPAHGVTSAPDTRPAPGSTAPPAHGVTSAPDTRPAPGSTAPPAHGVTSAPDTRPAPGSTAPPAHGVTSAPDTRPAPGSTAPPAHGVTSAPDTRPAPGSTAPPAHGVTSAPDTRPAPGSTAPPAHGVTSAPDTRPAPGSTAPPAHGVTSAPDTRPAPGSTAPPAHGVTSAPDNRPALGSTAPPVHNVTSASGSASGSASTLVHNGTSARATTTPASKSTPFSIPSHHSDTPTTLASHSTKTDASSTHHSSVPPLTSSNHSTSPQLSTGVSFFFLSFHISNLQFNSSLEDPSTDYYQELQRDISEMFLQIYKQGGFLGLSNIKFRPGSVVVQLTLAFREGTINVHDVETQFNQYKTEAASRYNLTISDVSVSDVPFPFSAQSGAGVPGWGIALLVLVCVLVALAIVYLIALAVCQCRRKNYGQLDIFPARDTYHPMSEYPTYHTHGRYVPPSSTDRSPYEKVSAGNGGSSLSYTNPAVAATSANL

[12] = biological target: polyepithelial mucin (PEM) antigen on cells (human) (UniProt P15941); remark: listed apart in the source
Target sequence in this assay (P15941 24-1255): as above

Molecule: Conjugate of 4-(4-acetylphenoxy)butanoic acid (7) condensed with Calicheamicin N-acetyl gamma dimethyl hydrazide and h-CT-M-01 (antibody)
In vitro IC50 (3H-thymidine incorporation) [1]: 0.048 ng/mL

Molecule: Conjugate of 4-(2-oxoethoxy)benzenepropanoic acid (5) condensed with Calicheamicin N-acetyl gamma dimethyl hydrazide and m-P67.6 (antibody)
Rel. Affinity (CD33 antigen (human) [2]): 1.11
Ex vivo inhibition of colony formation (CD33 antigen (human) [3]): 71 % inhibition
In vitro IC50 (3H-thymidine incorporation) (CD33 antigen (human) [3]): 0.45 ng/mL

Molecule: Conjugate of 4-acetylbenzenebutanoic acid (19) condensed with Calicheamicin N-acetyl gamma dimethyl hydrazide and m-P67.6 (antibody)
Rel. Affinity (CD33 antigen (human) [2]): 0.42
Ex vivo inhibition of colony formation (CD33 antigen (human) [5]): 99 % inhibition
In vitro IC50 (3H-thymidine incorporation) (CD33 antigen (human) [5]): 0.0082 ng/mL

Molecule: Conjugate of 3-(2-oxoethoxy)benzoic acid (6) condensed with Calicheamicin N-acetyl gamma dimethyl hydrazide and m-P67.6 (antibody)
Rel. Affinity (CD33 antigen (human) [2]): 1.91
In vitro IC50 (3H-thymidine incorporation) (CD33 antigen (human) [6]): 0.32 ng/mL

Molecule: Conjugate of 4-formylphenoxyacetic acid (1) condensed with Calicheamicin N-acetyl gamma dimethyl hydrazide and m-P67.6 (antibody)
Rel. Affinity (CD33 antigen (human) [2]): 0.77
Ex vivo inhibition of colony formation (CD33 antigen (human) [7]): 90 % inhibition
In vitro IC50 (3H-thymidine incorporation) (CD33 antigen (human) [7]): 0.068 ng/mL

Molecule: Conjugate of 4-formyl-3-methoxyphenoxyacetic acid (3) condensed with Calicheamicin N-acetyl gamma dimethyl hydrazide and m-P67.6 (antibody)
Rel. Affinity (CD33 antigen (human) [2]): 0.76
Ex vivo inhibition of colony formation (CD33 antigen (human) [9]): 90 % inhibition
In vitro IC50 (3H-thymidine incorporation) (CD33 antigen (human) [9]): 0.12 ng/mL

The remaining lines, values ahead:

Ex vivo inhibition of colony formation (CD33 antigen (human) [4]): 98 % inhibition
In vitro IC50 (3H-thymidine incorporation) (CD33 antigen (human) [4]): 0.017 ng/mL
Rel. Affinity (CD33 antigen (human) [2]): 0.96
Molecule: Conjugate of 4-(4-acetylphenoxy)butanoic acid (7) condensed with Calicheamicin N-acetyl gamma dimethyl hydrazide and m-P67.6 (antibody)

Rel. Affinity (CD33 antigen (human) [2]): 0.73
In vitro IC50 (3H-thymidine incorporation) (CD33 antigen (human) [8]): 0.047 ng/mL
Molecule: Conjugate of 6-formyl-2-naphthoic acid (4) condensed with Calicheamicin N-acetyl gamma dimethyl hydrazide and m-P67.6 (antibody)

Ex vivo IC50 (inhibition of D14 CFU-GM colony growth) [10]: 1 ng/mL
In vitro IC50 (3H-thymidine incorporation) [10]: 0.004 ng/mL
Molecule: Conjugate of 4-(4-acetylphenoxy)butanoic acid (7) condensed with calicheamicin N-acetyl gamma dimethyl hydrazide and anti-Tac (antibody)

Rel. Affinity [11]: 0.88
In vitro IC50 (3H-thymidine incorporation) [12]: 5.6 ng/mL
B1: Conjugate of 4-formyl-3-methoxyphenoxyacetic acid (3) condensed with Calicheamicin N-acetyl gamma dimethyl hydrazide and m-CT-M-01 (antibody, V domains shown)
VH: QIQLQQSGPELVKPGASVKISCKASGYTFTDYYINWMKQKPGQGLEWIGWIDPGSGNTKYNEKFKGKATLTVDTSSSTAYMQLSSLTSEDTAVYFCAREKTTYYYAMDYWGQGTSVTVSA
VL: DIVMTQAAPSVPVTPGESLSISCRSSKSLLHSNGDTFLYWFLQRPGQSPQLLIYRMSNLASGVPDRFSGSGSGTAFTLRVSRVEAEDVGVYYCMQHLEYPFTFGAGTKLELKR
modifications: drug-linker amide on lysine side chains, sites not stated; drug-linker amide on lysine side chains, sites not stated
